We go through two molecules from patent publication US20050227306A1, “Fluorescence polarization assay to detect protease cleavage” (priority 2003, published 2005).

Type in all cases: biochemical, E. coli
Experiment [1] concerns substrate 21-F (His6-tetraCys-X-MBP). Briefly: Fluorescence anisotropy proteolysis assay with substrate 21-F. The following applies: initial rate by fluorescence anisotropy, normalized to the rate of the protease with its preferred cognate substrate. The text has this: (§1) All protease substrates were expressed in E. coli Rosetta pLacI Rare to provide compensation for rare codons (see Kirienko et al. (2004) Biochemistry (Mosc) 69:527-535; available commercially from Novagen, a wholly-owned subsidiary of EMD Biosciences, Inc., Madison, Wis.). The expression was done in 2-L PET bottles (Millard et al. (2003) Protein Expr. Purif. 29:311-320). The protein purification followed typical IMAC purification procedures (see Sambrook & Russell, supra) including elution in an imidazole gradient from 0-350 mM. After SDS-PAGE analysis, appropriate fractions were pooled and desalted into 20 mM phosphate, pH 7.5, containing 100 mM NaCl and 0.3 mM TCEP. […]
(§2) Protease assays were conducted using a combination of 20 μM unlabeled and 40 nM labeled protease substrates unless noted otherwise. […] This decreased the amount of time between mixing and measurement to less than three minutes and allowed the fluorescence anisotropy measured at the first time point to closely approximate the anisotropy of the intact fusion protein. […]
(§3) Fluorescence anisotropy was measured using a Tecan 384 Ultra plate spectrofluorimeter. Excitation was at 485 nm (25 nm bandpass) and emission was measured at 525 nm (20 nm bandpass). […] See J. Lakowicz, “Principles of fluorescence spectroscopy,” Kluwer Academic/Plenum Publishers, New York, 1999. […]
For orientation: Polarisation of emitted light reports the rotation of a fluorescent probe.

The subject of experiment [2] is substrate 22-F (His6-tetraCys-X-MBP). Briefly: Fluorescence anisotropy proteolysis assay with substrate 22-F. The following applies: initial rate by fluorescence anisotropy, normalized to the rate of the protease with its preferred cognate substrate.
From the text: as §1, §2, §3

The test system of experiment [3] is substrate 23-F (His6-tetraCys-X-MBP). Briefly: Fluorescence anisotropy proteolysis assay with substrate 23-F. The following applies: for Relative rate of reaction, substrate 23F: initial rate by fluorescence anisotropy, normalized to the rate of the protease with its preferred cognate substrate.
From the text: as §1, with “TCEP. Proteins were concentrated to a final concentration of 300-600 μM using centrifugal concentrators. Glycerol (50% v/v) was added to all protease substrates except 26-F and frozen at −20° C. The Arabidopsis targets At3g03410 (expressed from pVP14) and At3g16990 (expressed from pVP15) were flash frozen as drops in liquid nitrogen and stored at −80° C.” for “TCEP.”
as §2
(§4) Fluorescence anisotropy was measured using a Tecan 384 Ultra plate spectrofluorimeter. Excitation was at 485 nm (25 nm bandpass) and emission was measured at 525 nm (20 nm bandpass). […] The observed anisotropy is the sum of the anisotropy of the individual fluorescent components, or robs=Σfiri, where robs, is the observed anisotropy, fi is the fractional fluorescence intensity of component i, and ri is the anisotropy of component i. See J. Lakowicz, “Principles of fluorescence spectroscopy,” Kluwer Academic/Plenum Publishers, New York, 1999. […]

Experiment [4] has as its system substrate 24-F (His6-tetraCys-X-MBP). Nature of the experiment: Fluorescence anisotropy proteolysis assay with substrate 24-F. The following applies: initial rate by fluorescence anisotropy, normalized to the rate of the protease with its preferred cognate substrate.
From the text: as §1, §2, §3

Experiment [5] concerns substrate 25-F (His6-tetraCys-X-MBP). Nature of the experiment: Fluorescence anisotropy proteolysis assay with substrate 25-F. The following applies: initial rate by fluorescence anisotropy, normalized to the rate of the protease with its preferred cognate substrate.
From the text: as §1, §2, §3

Experiment [6] deals with substrate 26-F (His6-tetraCys-X-MBP). Briefly: Fluorescence anisotropy proteolysis assay with substrate 26-F. Conditions: for Relative rate of reaction, substrate 26F: initial rate by fluorescence anisotropy, normalized to the rate of the protease with its preferred cognate substrate.
From the text: as §1, with “TCEP. Proteins were concentrated to a final concentration of 300-600 μM using centrifugal concentrators. Glycerol (50% v/v) was added to all protease substrates except 26-F and frozen at −20° C. The Arabidopsis targets At3g03410 (expressed from pVP14) and At3g16990 (expressed from pVP15) were flash frozen as drops in liquid nitrogen and stored at −80° C.” for “TCEP.”
as §2, §4

Experiment [7] concerns substrate 21-F (His6-tetraCys-X-MBP). Briefly: SDS-PAGE analysis of proteolysis of substrate 21-F. The following applies: incubated 16 h (overnight). How it is done:
FIG. 22 is a photograph of a gel depicting SDS-PAGE analysis of protease substrates incubated with Factor Xa and TEV protease for 16 h. Lane M, molecular weight standards of 31 and 45 kDa. Lanes 1-5, Factor Xa with substrates 21-F, 22-F, 23-F, 24-F and 25-F, respectively. Lanes 6-10, trypsin with substrates 21-F, 22-F, 23-F, 24-F and 25-F, respectively. Lanes 11-14, TEV protease with substrates 21-F, 22-F, 23-F and 24-F, respectively.
The intensity of protein bands in SDS-PAGE gels was determined using Image J-brand software, version 1.30. This is a public domain program that can be obtained from the National Institutes of Health (Bethesda, Md.).
SDS-PAGE analysis with Coomassie staining was performed to further evaluate the predicted low rates of substrate dependent non-specific proteolysis.

B1: TEV: tobacco etch virus protease (protein)
chain: GESLFKGPRDYNPISSTICHLTNESDGHTTSLYGIGFGPFIITNKHLFRRNNGTLLVQSLHGVFKVKNTTTLQQHLIDGRDMIIIRMPKDFPPFPQKLKFREPQREERICLVTTNFQTKSMSSMVSDTSCTFPSSDGIFWKHWIQTKDGQCGSPLVSTRDGFIVGIHSASNFTNTNNYFTSVPKNFMELLTNQEAQQWVSGWRLNADSVLWGGHKVFMSKPEEPFQPVKEATQLMNELVYSQ
As to B1, the “Relative rate of reaction, substrate 21F” value in experiment [1] is on record as 0.01. Also, the “Relative rate of reaction, substrate 22F” value in experiment [2] was 0.0. Further, the “Relative rate of reaction, substrate 23F” value in experiment [3] is recorded as −0.02. Moreover, the “Relative rate of reaction, substrate 24F” value in experiment [4] is recorded as −0.01. The “Relative rate of reaction, substrate 25F” value in experiment [5] is on record as 0.0. In addition, in experiment [6], the “Relative rate of reaction, substrate 26F” value was 1. Moreover, the Specific reaction rate in experiment [6] (substrate 26-F, slope of initial rate versus protease concentration, errors two standard deviations) is 17.3±0.7 moles substrate proteolyzed per mole of protease per hour. Further, the “Proteolysis of substrate 21-F by SDS-PAGE with Coomassie staining” value in experiment [7] is on record as “minor amount of proteolysis”.

B2: Enterokinase: commercial protease used for removing fusion tags (protein, UniProt P98072 2-800; P98072 801-1035, looked up)
Enteropeptidase non-catalytic …: GSKRSVPSRHRSLTTYEVMFAVLFVILVALCAGLIAVSWLSIQGSVKDAAFGKSHEARGTLKIISGATYNPHLQDKLSVDFKVLAFDIQQMIDDIFQSSNLKNEYKNSRVLQFENGSIIVIFDLLFDQWVSDKNVKEELIQGIEANKSSQLVTFHIDLNSIDITASLENFSTISPATTSEKLTTSIPLATPGNVSIECPPDSRLCADALKCIAIDLFCDGELNCPDGSDEDNKTCATACDGRFLLTGSSGSFEALHYPKPSNNTSAVCRWIIRVNQGLSIQLNFDYFNTYYADVLNIYEGMGSSKILRASLWSNNPGIIRIFSNQVTATFLIQSDESDYIGFKVTYTAFNSKELNNYEKINCNFEDGFCFWIQDLNDDNEWERTQGSTFPPSTGPTFDHTFGNESGFYISTPTGPGGRRERVGLLTLPLDPTPEQACLSFWYYMYGENVYKLSINISSDQNMEKTIFQKEGNYGQNWNYGQVTLNETVEFKVSFYGFKNQILSDIALDDISLTYGICNVSVYPEPTLVPTPPPELPTDCGGPHDLWEPNTTFTSINFPNSYPNQAFCIWNLNAQKGKNIQLHFQEFDLENIADVVEIRDGEGDDSLFLAVYTGPGPVNDVFSTTNRMTVLFITDNMLAKQGFKANFTTGYGLGIPEPCKEDNFQCKDGECIPLVNLCDGFPHCKDGSDEAHCVRLFNGTTDSSGLVQFRIQSIWHVACAENWTTQISDDVCQLLGLGTGNSSVPTFSTGGGPYVNLNTAPNGSLILTPSQQCLEDSLILLQCNYKSCGKKLVTQEVSPK
Enteropeptidase catalytic …: IVGGSDSREGAWPWVVALYFDDQQVCGASLVSRDWLVSAAHCVYGRNMEPSKWKAVLGLHMASNLTSPQIETRLIDQIVINPHYNKRRKNNDIAMMHLEMKVNYTDYIQPICLPEENQVFPPGRICSIAGWGALIYQGSTADVLQEADVPLLSNEKCQQQMPEYNITENMVCAGYEAGGVDSCQGDSGGPLMCQENNRWLLAGVTSFGYQCALPNRPGVYARVPRFTEWIQSFLH
Take B2: the “Relative rate of reaction, substrate 21F” value in experiment [1] worked out at 0.5. The “Relative rate of reaction, substrate 22F” value in experiment [2] was found to be 1.3. For the same molecule, the “Relative rate of reaction, substrate 23F” value in experiment [3] is given as 1. Also, the Specific reaction rate in experiment [3] (substrate 23-F, per supplier's reported activity unit) is 0.130±0.007 nmole substrate proteolyzed per unit enzyme per hour. In addition, the “Relative rate of reaction, substrate 24F” value in experiment [4] was 0.2. The “Relative rate of reaction, substrate 26F” value in experiment [6] turned out to be 1.
